Data published in patent publication US20030143232.

Assays:
[1] = molecular target: recombinant survivin(T34A) (UniProt O15392)
[2] = molecular target: recombinant wild type survivin (unphosphorylated) (UniProt O15392)
Sequence of recombinant wild type survivin (unphosphorylated) (O15392 whole entry, looked up): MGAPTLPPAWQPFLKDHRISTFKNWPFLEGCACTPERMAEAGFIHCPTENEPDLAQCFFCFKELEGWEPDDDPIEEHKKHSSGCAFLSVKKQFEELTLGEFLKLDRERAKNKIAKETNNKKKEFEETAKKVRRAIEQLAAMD

Sequence of recombinant survivin(T34A) (O15392 whole entry T34A): as the sequence (O15392 whole entry, looked up) above, with T34A counted along it

Row | Substance | in vitro kinase assay, 32P autoradiography [1] | in vitro kinase assay, 32P autoradiography [2]
1 | baculovirus-expressed human p34^cdc2-cyclin B1 kinase complex | substitution of Thr^34→Ala, i.e. survivin(T34A), abolished phosphorylation by p34^cdc2-cyclin B1 | baculovirus-expressed p34^cdc2-cyclin B1 readily phosphorylated recombinant wild type survivin
2 | baculovirus-expressed human Cdk2-cyclin E kinase complex | baculovirus-expressed Cdk2-cyclin E did not phosphorylate wild type survivin or survivin(T34A) | baculovirus-expressed Cdk2-cyclin E did not phosphorylate wild type survivin or survivin(T34A)
